Measurements: publication PMC2756588

Legend:
Assay in all cases: SPOT array
Boi2, P39969 = target: T1, Boi2, P39969; details: median of control spots 1161
T1 sequence (P39969 32-116, looked up): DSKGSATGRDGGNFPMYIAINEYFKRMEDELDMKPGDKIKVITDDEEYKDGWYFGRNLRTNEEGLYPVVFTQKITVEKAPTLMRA

Bem1-2, P29366 = details: median of control spots 4347
Bzz1-1, P38822 = target: T2, Bzz1-1, P38822; details: median of control spots 4446
T2 sequence (P38822 478-572, looked up): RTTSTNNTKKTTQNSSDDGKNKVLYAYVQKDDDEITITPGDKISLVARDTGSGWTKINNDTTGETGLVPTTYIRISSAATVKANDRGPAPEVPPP

Lsb4, P32793 = target: T3, Lsb4, P32793; details: median of control spots 397
T3 sequence (P32793 402-468, looked up): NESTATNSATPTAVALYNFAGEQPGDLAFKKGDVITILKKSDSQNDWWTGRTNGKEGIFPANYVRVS

Bem1-1, P29366 = details: median of control spots 4282
Abp1, P15891 = target: T4, Abp1, P15891; details: median of control spots 935
T4 sequence (P15891 535-592, looked up): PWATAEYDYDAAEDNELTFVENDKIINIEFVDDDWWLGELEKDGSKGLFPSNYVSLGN

Bzz1-2, P38822 = target: T5, Bzz1-2, P38822; details: median of control spots 4538
T5 sequence (P38822 568-633, looked up): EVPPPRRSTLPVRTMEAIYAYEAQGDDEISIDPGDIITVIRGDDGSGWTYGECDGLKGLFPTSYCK

Hof1, Q05080 = target: T6, Hof1, Q05080; details: median of control spots 4086
T6 sequence (Q05080 590-669, looked up): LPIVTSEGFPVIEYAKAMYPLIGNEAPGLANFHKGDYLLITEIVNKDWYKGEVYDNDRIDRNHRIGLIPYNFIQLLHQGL

Fus1, P11710 = target: T7, Fus1, P11710; details: median of control spots 1200
T7 sequence (P11710 432-512, looked up): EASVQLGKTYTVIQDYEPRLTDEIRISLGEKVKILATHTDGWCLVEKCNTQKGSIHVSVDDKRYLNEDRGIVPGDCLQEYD

Pin3, Q06449 = target: T8, Pin3, Q06449; details: median of control spots 2171
T8 sequence (Q06449 53-122, looked up): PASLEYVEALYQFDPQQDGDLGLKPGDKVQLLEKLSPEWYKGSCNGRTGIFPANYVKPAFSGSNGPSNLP

Sla1-2, P32790 = target: T9, Sla1-2, P32790; details: median of control spots 712
T9 sequence (P32790 60-140, looked up): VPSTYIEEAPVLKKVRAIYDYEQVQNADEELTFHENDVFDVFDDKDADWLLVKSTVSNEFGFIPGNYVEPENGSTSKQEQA

Boi1, P38041 = target: T10, Boi1, P38041; details: median of control spots 1162
T10 sequence (P38041 1-86, looked up): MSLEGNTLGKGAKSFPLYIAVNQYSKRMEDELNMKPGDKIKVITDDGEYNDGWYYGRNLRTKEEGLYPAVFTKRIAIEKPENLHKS

GST = details: median of control spots 978
Hse1, P38753 = target: T11, Hse1, P38753; details: median of control spots 1727
T11 sequence (P38753 208-285, looked up): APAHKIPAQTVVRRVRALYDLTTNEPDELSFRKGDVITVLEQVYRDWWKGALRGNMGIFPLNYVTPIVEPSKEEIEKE

Nbp2, Q12163 = target: T12, Nbp2, Q12163; details: median of control spots 357
T12 sequence (Q12163 103-180, looked up): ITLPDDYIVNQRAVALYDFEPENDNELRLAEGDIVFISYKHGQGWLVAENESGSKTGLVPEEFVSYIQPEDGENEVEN

Myo3, P36006 = details: median of control spots 468
Sho1, P40073 = details: median of control spots 1148
Cyk3, Q07533 = target: T13, Cyk3, Q07533; details: median of control spots 1451
T13 sequence (Q07533 1-83, looked up): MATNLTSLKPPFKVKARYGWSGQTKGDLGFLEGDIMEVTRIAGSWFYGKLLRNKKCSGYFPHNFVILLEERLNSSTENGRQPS

Bud14, P27637 = target: T14, Bud14, P27637; details: median of control spots 956
T14 sequence (P27637 247-328, looked up): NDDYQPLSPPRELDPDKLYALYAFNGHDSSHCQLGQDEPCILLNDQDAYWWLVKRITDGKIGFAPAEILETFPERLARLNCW

Cdc25, P04821 = target: T15, Cdc25, P04821; details: median of control spots 969
T15 sequence (P04821 50-136, looked up): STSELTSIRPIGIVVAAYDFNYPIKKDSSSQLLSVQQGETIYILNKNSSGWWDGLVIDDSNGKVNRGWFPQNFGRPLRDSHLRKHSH

Bbc1, P47068 = target: T16, Bbc1, P47068; details: median of control spots 796
T16 sequence (P47068 1-78, looked up): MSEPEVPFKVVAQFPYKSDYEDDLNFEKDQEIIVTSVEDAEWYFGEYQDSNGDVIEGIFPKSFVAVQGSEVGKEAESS

Pex13, P80667 = target: T17, Pex13, P80667; details: median of control spots 1341
T17 sequence (P80667 295-386, looked up): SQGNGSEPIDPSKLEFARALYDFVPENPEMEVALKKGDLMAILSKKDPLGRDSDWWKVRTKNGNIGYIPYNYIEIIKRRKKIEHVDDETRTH

Myo5, Q04439 = target: T18, Myo5, Q04439; details: median of control spots 471
T18 sequence (Q04439 1072-1160, looked up): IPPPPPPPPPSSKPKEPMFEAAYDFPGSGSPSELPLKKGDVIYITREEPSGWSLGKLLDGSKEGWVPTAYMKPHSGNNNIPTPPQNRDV

Lsb3, P43603 = target: T19, Lsb3, P43603; details: median of control spots 406
T19 sequence (P43603 385-451, looked up): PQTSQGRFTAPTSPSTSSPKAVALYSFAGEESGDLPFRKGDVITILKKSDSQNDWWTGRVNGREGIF

Lsb1, P53281 = target: T20, Lsb1, P53281; details: median of control spots 388
T20 sequence (P53281 45-122, looked up): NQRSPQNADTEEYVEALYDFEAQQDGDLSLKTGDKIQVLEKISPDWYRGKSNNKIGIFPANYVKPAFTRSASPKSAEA

Rvs167, P39743 = details: median of control spots 2707
Sla1-3, P32790 = target: T21, Sla1-3, P32790; details: median of control spots 5475
T21 sequence (P32790 344-424, looked up): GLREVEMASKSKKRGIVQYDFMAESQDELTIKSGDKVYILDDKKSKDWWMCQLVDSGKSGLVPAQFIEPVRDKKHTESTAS

Sequence of Rvs167, P39743 (P39743 419-482): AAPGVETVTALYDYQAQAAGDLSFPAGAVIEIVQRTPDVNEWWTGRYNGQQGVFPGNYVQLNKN
Sequence of Sho1, P40073 (P40073 287-367): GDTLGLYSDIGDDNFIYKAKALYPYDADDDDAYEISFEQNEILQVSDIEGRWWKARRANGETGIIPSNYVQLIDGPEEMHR
Sequence of Bem1-2, P29366 (P29366 139-227): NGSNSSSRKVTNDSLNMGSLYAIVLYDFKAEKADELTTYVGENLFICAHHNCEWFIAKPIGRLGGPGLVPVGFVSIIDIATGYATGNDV
Sequence of Bem1-1, P29366 (P29366 55-141): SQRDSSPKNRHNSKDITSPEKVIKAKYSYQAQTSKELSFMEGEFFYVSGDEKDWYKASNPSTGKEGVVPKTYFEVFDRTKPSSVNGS

QNTPPLPPKPKSPHL gave an SPOT intensity (Boi2, P39969) of 0, an SPOT intensity (Bem1-2, P29366) of 16 and an SPOT intensity (Bzz1-1, P38822) of 0. For the same binder, the SPOT intensity (Lsb4, P32793) was 231, the SPOT intensity (Bem1-1, P29366) was 0 and the SPOT intensity (Abp1, P15891) was 16. The SPOT intensity (Bzz1-2, P38822) was 2, the SPOT intensity (Hof1, Q05080) was 1320 and the SPOT intensity (Fus1, P11710) was 0. It also gave an SPOT intensity (Pin3, Q06449) of 0, an SPOT intensity (Sla1-2, P32790) of 1 and an SPOT intensity (Boi1, P38041) of 3. For the same binder, the SPOT intensity (GST) was 2, the SPOT intensity (Hse1, P38753) was 634 and the SPOT intensity (Nbp2, Q12163) was 1. For the same binder, the SPOT intensity (Myo3, P36006) was 0, the SPOT intensity (Sho1, P40073) was 72 and the SPOT intensity (Cyk3, Q07533) was 0. It also gave an SPOT intensity (Bud14, P27637) of 0, an SPOT intensity (Cdc25, P04821) of 0 and an SPOT intensity (Bbc1, P47068) of 0. It also gave an SPOT intensity (Pex13, P80667) of 309, an SPOT intensity (Myo5, Q04439) of 0 and an SPOT intensity (Lsb3, P43603) of 249. It also gave an SPOT intensity (Lsb1, P53281) of 0, an SPOT intensity (Rvs167, P39743) of 8 and an SPOT intensity (Sla1-3, P32790) of 0.

Work on ATKSASPTLPTRRSR yielded an SPOT intensity (Boi2, P39969) of 0, an SPOT intensity (Bem1-2, P29366) of 18 and an SPOT intensity (Bzz1-1, P38822) of 3. For the same binder, the SPOT intensity (Lsb4, P32793) was 1180, the SPOT intensity (Bem1-1, P29366) was 3 and the SPOT intensity (Abp1, P15891) was 182. The SPOT intensity (Bzz1-2, P38822) was 1, the SPOT intensity (Hof1, Q05080) was 0 and the SPOT intensity (Fus1, P11710) was 2. It also gave an SPOT intensity (Pin3, Q06449) of 20, an SPOT intensity (Sla1-2, P32790) of 8 and an SPOT intensity (Boi1, P38041) of 3. The SPOT intensity (GST) was 1, the SPOT intensity (Hse1, P38753) was 2 and the SPOT intensity (Nbp2, Q12163) was 2. It also gave an SPOT intensity (Myo3, P36006) of 12, an SPOT intensity (Sho1, P40073) of 132 and an SPOT intensity (Cyk3, Q07533) of 1. It also gave an SPOT intensity (Bud14, P27637) of 8, an SPOT intensity (Cdc25, P04821) of 22 and an SPOT intensity (Bbc1, P47068) of 79. It also gave an SPOT intensity (Pex13, P80667) of 249, an SPOT intensity (Myo5, Q04439) of 0 and an SPOT intensity (Lsb3, P43603) of 834. For the same binder, the SPOT intensity (Lsb1, P53281) was 56, the SPOT intensity (Rvs167, P39743) was 1540 and the SPOT intensity (Sla1-3, P32790) was 1.

SKIRPTPRKPSRMAT was tested, and the SPOT intensity (Boi2, P39969) was 3, the SPOT intensity (Bem1-2, P29366) was 50 and the SPOT intensity (Bzz1-1, P38822) was 6. It also gave an SPOT intensity (Lsb4, P32793) of 162, an SPOT intensity (Bem1-1, P29366) of 6 and an SPOT intensity (Abp1, P15891) of 345. The SPOT intensity (Bzz1-2, P38822) was 16, the SPOT intensity (Hof1, Q05080) was 8 and the SPOT intensity (Fus1, P11710) was 12. It also gave an SPOT intensity (Pin3, Q06449) of 20, an SPOT intensity (Sla1-2, P32790) of 21 and an SPOT intensity (Boi1, P38041) of 4. For the same binder, the SPOT intensity (GST) was 2, the SPOT intensity (Hse1, P38753) was 19 and the SPOT intensity (Nbp2, Q12163) was 44. For the same binder, the SPOT intensity (Myo3, P36006) was 50, the SPOT intensity (Sho1, P40073) was 177 and the SPOT intensity (Cyk3, Q07533) was 6. The SPOT intensity (Bud14, P27637) was 13, the SPOT intensity (Cdc25, P04821) was 35 and the SPOT intensity (Bbc1, P47068) was 37. It also gave an SPOT intensity (Pex13, P80667) of 40, an SPOT intensity (Myo5, Q04439) of 23 and an SPOT intensity (Lsb3, P43603) of 124. The SPOT intensity (Lsb1, P53281) was 10, the SPOT intensity (Rvs167, P39743) was 148 and the SPOT intensity (Sla1-3, P32790) was 21.

TSFKGRPKPPKTLKH was tested, and the SPOT intensity (Boi2, P39969) was 0, the SPOT intensity (Bem1-2, P29366) was 0 and the SPOT intensity (Bzz1-1, P38822) was 0. It also gave an SPOT intensity (Lsb4, P32793) of 0, an SPOT intensity (Bem1-1, P29366) of 0 and an SPOT intensity (Abp1, P15891) of 128. The SPOT intensity (Bzz1-2, P38822) was 11, the SPOT intensity (Hof1, Q05080) was 1 and the SPOT intensity (Fus1, P11710) was 1. The SPOT intensity (Pin3, Q06449) was 4, the SPOT intensity (Sla1-2, P32790) was 0 and the SPOT intensity (Boi1, P38041) was 1. For the same binder, the SPOT intensity (GST) was 0, the SPOT intensity (Hse1, P38753) was 2 and the SPOT intensity (Nbp2, Q12163) was 0. It also gave an SPOT intensity (Myo3, P36006) of 0, an SPOT intensity (Sho1, P40073) of 43 and an SPOT intensity (Cyk3, Q07533) of 2. It also gave an SPOT intensity (Bud14, P27637) of 1, an SPOT intensity (Cdc25, P04821) of 2 and an SPOT intensity (Bbc1, P47068) of 5. For the same binder, the SPOT intensity (Pex13, P80667) was 3, the SPOT intensity (Myo5, Q04439) was 0 and the SPOT intensity (Lsb3, P43603) was 0. It also gave an SPOT intensity (Lsb1, P53281) of 0, an SPOT intensity (Rvs167, P39743) of 0 and an SPOT intensity (Sla1-3, P32790) of 2.
